Results reported in US6562613.

Tested on: series of eight synthetic peptides with sequences found in and around the C-proteinase cleavage sites of -Ala-Asp- and -Gly-Asp- in the four pro-alpha chains of types I, II and III procollagen

Substance: C-proteinase (enzyme used on the synthetic peptide substrates; source not stated)
- cleavage of synthetic peptides, HPLC followed by laser desorption mass spectrometry: four of the eight propeptides were specifically and completely cleaved by the enzyme
